Results on three molecules are retold here after PMC5854669, “Zinc knuckle of TAF1 is a DNA binding module critical for TFIID promoter occupancy”.

Positions count from the first letter of the chain named.

As usually defined, the Kd is a measure of binding affinity in units of concentration.

The target of one series is T1, TAF1 ZnD charge mutant (Homo sapiens, UniProt P21675 1256-1303, R1295A;K1298A).
T1 chain: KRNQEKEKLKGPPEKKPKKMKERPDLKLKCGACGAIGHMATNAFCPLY
Nature of the series: BLI; BLI: 10 mM HEPES pH 7.9, 5 mM MgCl2, 100 mM NaCl, 10% glycerol, 0.1% ovalbumin, 0.2 mM dI:dC, 30 °C; EMSA: 10 mM HEPES pH 7.9, 5 mM MgCl2, 100 mM NaCl, 10% glycerol, 20 mM tetrasodium pyrophosphate (so in the source), 0.2 mM dI:dC, 25 °C. The following applies: protein: recombinant; tags: His-GB1; label: 5'-biotin (BLI); 5'-32P (EMSA); blunt. (In general: In BLI a coated tip is dipped into the sample, and binding shifts an interference pattern.)

The next series deals with T2, TAF1 ZnD cysteine mutant (Homo sapiens, UniProt P21675 1256-1303, C1285A;C1288A).
T2 chain: T1 chain with C30A, C33A, A40R, A43K
The description is as above. The following applies: protein: recombinant; tags: His-GB1; label: 5'-biotin (BLI); 5'-32P (EMSA); blunt. A general note: Mobility shift assays separate free from complexed probe on a gel.

The next series addresses T3, TAF1 ZnC cysteine mutant (Homo sapiens, UniProt P21675 1234-1303, C1285A;C1288A).
T3 sequence: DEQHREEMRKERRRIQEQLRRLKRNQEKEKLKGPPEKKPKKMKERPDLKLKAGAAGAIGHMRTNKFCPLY
The series is described as above. The settings on record: protein: recombinant; tags: His-GB1; label: 5'-biotin (BLI); 5'-32P (EMSA); blunt.

The target in the next series is T4, TAF1 ZnD (Homo sapiens, UniProt P21675 1256-1303).
T4 chain: T1 chain with A40R, A43K
The series is described as follows: BLI; 0.2 mM dI:dC, 5 mM Mg2+; BLI: 10 mM HEPES pH 7.9, 5 mM MgCl2, 100 mM NaCl, 10% glycerol, 0.1% ovalbumin, 0.2 mM dI:dC, 30 °C; EMSA: 10 mM HEPES pH 7.9, 5 mM MgCl2, 100 mM NaCl, 10% glycerol, 20 mM tetrasodium pyrophosphate (so in the source), 0.2 mM dI:dC, 25 °C. The settings on record: protein: recombinant; tags: His-GB1; label: 5'-biotin (BLI); 5'-32P (EMSA); blunt.

The target in a further series is T5, TAF1 ZnA (Homo sapiens, UniProt P21675 1234-1371).
T5 sequence: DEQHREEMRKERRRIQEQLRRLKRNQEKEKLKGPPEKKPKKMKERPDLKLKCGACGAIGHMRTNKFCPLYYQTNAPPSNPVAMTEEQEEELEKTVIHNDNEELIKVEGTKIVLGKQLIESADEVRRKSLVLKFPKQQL
The description is as above. The settings on record: protein: recombinant; EMSA/proteolysis: tag removed by TEV; label: 5'-biotin (BLI); 5'-32P (EMSA); blunt.

In another series the target is T6, TAF1 ZnC (Homo sapiens, UniProt P21675 1234-1303).
T6 sequence: T3 sequence with A52C, A55C
The series is described as above. The settings on record: protein: recombinant; tags: His-GB1; label: 5'-biotin (BLI); 5'-32P (EMSA); blunt.

B1: IMD (Inr, MTE, DPE of super core promoter) (dsDNA)
DNA 1: GTCCTCAGTCGCGATCGAACACTCGAGCCGAGCAGACGTGCCTA
DNA 2: TAGGCACGTCTGCTCGGCTCGAGTGTTCGATCGCGACTGAGGAC
As to B1, the binding result in the series with TAF1 ZnD charge mutant, with TAF1 ZnD cysteine mutant and in the series with TAF1 ZnC cysteine mutant was “no binding” throughout. The Kd in the series with TAF1 ZnD was 503 ± 67 nM; in the series with TAF1 ZnA it was 288 ± 46 nM; in the series with TAF1 ZnC, 343 ± 42 nM.

B2: Random DNA (dsDNA)
DNA 1: GAATGTCGCGAAGGCAGCGTTCGCGAAGACAGCAAAGAAG
DNA 2: CTTCTTTGCTGTCTTCGCGAACGCTGCCTTCGCGACATTC
On to B2, for which, in the series with TAF1 ZnA, the Kd came out at 1010 ± 228 nM.

B3: CD1P (cyclin D1 core promoter) (dsDNA)
DNA 1: AGGGGAGTTTTGTTGAAGTTGCAAAGTCCTGGAGCCTCCAGAGGGCTGTCG
DNA 2: CGACAGCCCTCTGGAGGCTCCAGGACTTTGCAACTTCAACAAAACTCCCCT
Turning to B3, the Kd with TAF1 ZnA turned out to be 411 ± 101 nM.
